The values below come from patent publication US20100330578 (published 2010).

This data set addresses human alpha-thrombin (Homo sapiens, UniProt P00734;P00734 P00734:328-363,P00734:364-622). Nature of the data set: MST; 100 nM aptamer titrated with 0-16580 nM thrombin; 10% human serum, 1x SSC (150 mM NaCl, 15 mM Na3-citrate, pH 7.2), 5 mM KCl, 1 mM CaCl2, 1 mM MgCl2; IR-laser t.

In the case of TGGTTGGTGTGGTTGGT (ssDNA) [Cy5-labelled thrombin DNA aptamer], the binding result is given as “binds”.
